What was measured:
[1] = molecular target: neuraminidase from A/BrevigMission/1/1918 (H1N1), residues 83 to 468 of the ectodomain, construct pTT5-NA (+SS −TET) (influenza A virus A/BrevigMission/1/1918 (H1N1)); assay: crystal structure
[2] = molecular target: neuraminidase from A/BrevigMission/1/1918 (H1N1), residues 83 to 468 of the ectodomain, construct pTT5-NA (+SS −TET) (influenza A virus A/BrevigMission/1/1918 (H1N1)); assay: dynamic light scattering; in solution; data not shown

neuraminidase from A/BrevigMission/1/1918 (H1N1), residues 83 to 468 of the ectodomain, construct pTT5-NA (+SS −TET) (domain or fragment)
stoichiometry N [1]: 4
stoichiometry N [2]: 4

Reference: PMC8538103
